Positions count from the first letter of the chain named.

The labels stand for the following.
T1: human CLDN9 (human, UniProt O95484 1-217)
T1 construct: It was expressed on 293T cells from human CLDN9/pCMV6-Entry bought from OriGene; also called claudin-9
T1 sequence: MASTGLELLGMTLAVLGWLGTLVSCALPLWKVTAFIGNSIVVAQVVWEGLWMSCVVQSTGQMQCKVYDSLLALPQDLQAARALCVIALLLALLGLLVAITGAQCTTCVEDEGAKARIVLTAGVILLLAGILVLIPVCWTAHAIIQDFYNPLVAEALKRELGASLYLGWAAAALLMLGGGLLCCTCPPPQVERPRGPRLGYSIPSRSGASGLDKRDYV

T2: human CLDN6 (human, UniProt P56747 1-220)
T2 construct: In the flow cytometry it was expressed on 293T cells from human CLDN6/pCMV-Entry bought from OriGene; It was also expressed on CHO-K1 cells by cDNA transfection, and the endogenous protein was immunoprecipitated from NTERA-2 cell lysate; also called claudin-6; hCLDN6
T2 sequence: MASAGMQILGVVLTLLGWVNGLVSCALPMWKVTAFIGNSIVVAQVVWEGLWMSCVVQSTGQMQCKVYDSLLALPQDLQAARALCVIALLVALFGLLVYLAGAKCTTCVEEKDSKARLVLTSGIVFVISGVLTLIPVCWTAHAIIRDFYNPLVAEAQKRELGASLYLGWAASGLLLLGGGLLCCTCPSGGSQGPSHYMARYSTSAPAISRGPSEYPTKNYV

T3: human CLDN3 (human, UniProt O15551 1-220)
T3 construct: whole, on cells; Transfection was confirmed with an anti-FLAG antibody, so the construct may carry a tag
T3 sequence (looked up): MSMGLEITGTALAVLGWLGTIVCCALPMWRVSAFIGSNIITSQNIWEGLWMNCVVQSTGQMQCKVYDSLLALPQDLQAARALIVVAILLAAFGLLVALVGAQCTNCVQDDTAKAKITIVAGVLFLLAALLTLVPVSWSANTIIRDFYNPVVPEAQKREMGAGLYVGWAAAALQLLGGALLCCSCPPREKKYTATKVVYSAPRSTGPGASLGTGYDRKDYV

T4: human CLDN4 (human, UniProt O14493 1-209)
T4 construct: whole, on cells; Transfection was confirmed with an anti-FLAG antibody, so the construct may carry a tag
T4 sequence (looked up): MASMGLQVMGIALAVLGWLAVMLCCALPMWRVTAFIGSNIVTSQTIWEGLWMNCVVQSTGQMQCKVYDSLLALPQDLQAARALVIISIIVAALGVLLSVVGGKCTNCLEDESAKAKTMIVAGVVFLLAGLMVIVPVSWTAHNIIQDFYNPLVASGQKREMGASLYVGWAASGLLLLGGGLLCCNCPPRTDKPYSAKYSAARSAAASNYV

B1: mouse anti-CLDN6 antibody B1 (antibody, V domains shown)
VH: EVQLQQSGPELVKPGASVKISCKTSGYTFTEYTMHWVQQSHGKSLEWIGGVNPNSGDTSYNQKFKGKATLTVDKSSSTAYMELRSLTSEDSAVYYCARPGGYDVGYYAMDYWGQGTSVTVSS
VL: DIQMTQTASSLSASLGDRVTISCRASQDINNYLNWYQQKPDGTVKLLIYFTSRLHSGVPSRFSGSGSGTHYSLTITNLEQEDIATYFCQQGYPLPWTFGGGTKLEIK
notes: Mouse monoclonal antibody purified from the culture supernatant of hybridoma 218B1; a mouse IgG1 was used as the control; also called B1 antibody; 218B1
B2: mouse anti-CLDN6 antibody C7 (antibody, V domains shown)
VH: B1 VH
VL: B1 VL with F50S, N77H
notes: Mouse monoclonal antibody purified from the culture supernatant of hybridoma 218C7; also called C7 antibody; 218C7
B3: humanized anti-CLDN6 antibody H1L3 (antibody, human IgG1, kappa, L234A L235A, V domains shown)
VH: QVQLVQSGAEVKKPGASVKVSCKASGYTFTEYTMHWVRQAPGQGLEWMGGVNPNSGDTSYAQKFQGRVTITADTSTSTAYMELSSLRSEDTAVYYCARPGGYDVGYYAMDYWGQGTLVTVSS
VL: DIQMTQSPSSLSASVGDRVTITCRASQDINNYLNWYQQKPGGAVKLLIYFTSRLHSGVPSRFSGSGSGTDYTLTISSLQPEDFATYYCQQGYPLPWTFGGGTKVEIKR
notes: Heavy chain hH1 with light chain hL3; Human IgG1 LALA constant region and human kappa light chain; also called H1L3 antibody
B4: humanized anti-CLDN6 antibody H2L2 (antibody, human IgG1, kappa, L234A L235A, V domains shown)
VH: B3 VH with Q1E, A24T, Q43K, G44S
VL: B3 VL with G42K, D70H, G100Q
notes: Heavy chain hH2 with light chain hL2; Human IgG1 LALA constant region and human kappa light chain; also called H2L2 antibody
B5: humanized anti-CLDN6 antibody H2L4 (antibody, human IgG1, kappa, L234A L235A, V domains shown)
VH: B3 VH with Q1E, A24T, Q43K, G44S
VL: B3 VL with Y92N, P93T
notes: Human IgG1 LALA constant region and human kappa light chain; also called H2L4 antibody
B6: humanized anti-CLDN6 antibody H1L1 (antibody, human IgG1, kappa, L234A L235A, V domains shown)
VH: B3 VH
VL: B3 VL with G42K, V44P, G100Q
notes: Heavy chain hH1 with light chain hL1; Human IgG1 LALA constant region and human kappa light chain; also called H1L1 antibody
B7: humanized anti-CLDN6 antibody H3L3 (antibody, human IgG1, kappa, L234A L235A, V domains shown)
VH: B3 VH with Q1E, A24T, I70L, A72V, T74K
VL: B3 VL
notes: Heavy chain hH3 with light chain hL3; Human IgG1 LALA constant region and human kappa light chain; also called H3L3 antibody

One experiment addresses T1, human CLDN9. Kind of experiment: flow cytometry on 293T cells transiently transfected with human CLDN9. On the procedure: (§1) The binding activity of the humanized anti-CLDN6 antibody produced in Example 136 to human CLDN6 and its family molecules, CLDN3, CLDN4, and CLDN9, was evaluated by using a flow cytometry method. […] The cells were washed with Dulbecco's phosphate buffered saline (Sigma-Aldrich Co. LLC) containing 5% fetal bovine serum (Hyclone) (hereinafter, referred to as 5% FBS-containing PBS), and FITC AffiniPureF (ab′)₂ Fragment Goat Anti-Human IgG (H+L) (Jackson ImmunoResearch Laboratories Inc.) 150-fold diluted with 5% FBS-containing PBS was then added thereto, and the cells were suspended and left to stand at 4° C. for 30 minutes. After washing with 5% FBS-containing PBS, detection was carried out by using a flow cytometer (FC500; Beckman Coulter, Inc.). Data analysis was carried out by using FlowJo (Tree Star, Inc.), and mean fluorescence intensity (MFI) of FITC, which indicates the amount of the binding antibody, was calculated. […] In each graph in FIG. 42, the abscissa represents antibody concentrations and the ordinate represents MFI.
A general note: In flow cytometry, cells or beads pass a laser one at a time.
B1: the binding result was “binds”.

On to B2, for which the binding result is listed as “binds”.

Turning to B3, the binding result is recorded as “binds”.

As for B4, the binding result is reported as “binds”.

Regarding B5, the binding result is on record as “binds”.

B6: the binding result was “binds”.

B7: the binding result is given as “binds”.

Another experiment concerns the target T2, human CLDN6. Kind of experiment: immunoprecipitation from NTERA-2 cell lysate with the antibody, SDS-PAGE, mass spectrometry of the 18 kDa band.
Procedure: 2×10⁷ NTERA-2 cells were collected and washed twice with PBS. The cells were collected by using a cell scraper, and centrifuged at 1500 rpm for 5 minutes. After the supernatant was removed, the cells were resuspended in 2 mL of the lysis buffer, and treated at 4° C. for 30 minutes. The resultant was centrifuged (13000 rpm, 20 minutes, 4° C.) to prepare a cell lysate. Protein G Sepharose/lysis buffer (50% slurry; 180 μL) was added to the cell lysate, and the resultant was rotated at 4° C. for 30 minutes and then centrifuged at 4° C. for 1 hour, and the supernatant was collected. […] The Protein G Sepharose was washed six times with the lysis buffer (1 mL), and then resuspended in 1×SDS sample buffer. After the suspension was treated at 100° C. for 5 minutes, the solution was collected as a sample for SDS-PAGE. SDS-PAGE was carried out in the same manner as in 2-2), and the electrophoresis gel was stained with CBB. The part corresponding to 18 kDa was cut out of the electrophoresis gel, and subjected to mass spectrometry.
Regarding B1, the binding result was “binds”.

Another experiment concerns the target T2, human CLDN6. Kind of experiment: FACS on CHO-K1 cells transfected with human claudin-6 cDNA.
B2: the binding result was “binds”.

In the next experiment the target is T3, human CLDN3. Kind of experiment: flow cytometry on 293T cells transiently transfected with human CLDN3.
Take B1: the binding result is given as “no binding”.

Consider B2, for which the binding result is recorded as “no binding”.

For the molecule B3, the binding result is reported as “no binding (tested: 100 nM)”.

For the molecule B4, the binding result is on record as “no binding (tested: 100 nM)”.

B5: the binding result is “no binding (tested: 100 nM)”.

Turning to B6, the binding result is “no binding (tested: 100 nM)”.

With B7, the binding result is “no binding (tested: 100 nM)”.

For another experiment, the target named is T2, human CLDN6. Kind of experiment: flow cytometry on 293T cells transiently transfected with human CLDN6. On the procedure: as §1
Consider B3, for which the binding result was “binds”.

B4: the binding result is given as “binds”.

With B5, the binding result was “binds”.

Regarding B6, the binding result was “binds”.

For the molecule B7, the binding result is “binds”.

The next experiment has as its target T4, human CLDN4. Kind of experiment: flow cytometry on 293T cells transiently transfected with human CLDN4.
As to B1, the binding result is “no binding”.

B2: the binding result is listed as “no binding”.

With B3, the binding result was “no binding (tested: 100 nM)”.

Take B4: the binding result is on record as “no binding (tested: 100 nM)”.

As to B5, the binding result is reported as “no binding (tested: 100 nM)”.

For B6, the binding result is “no binding (tested: 100 nM)”.

For B7, the binding result is recorded as “no binding (tested: 100 nM)”.

The record behind these values is patent US20220395579A1 (Daiichi Sankyo, published 2022).
